Laboratory results taken from patent publication US8809287B2, “Compositions and methods for altering Wnt autocrine signaling” (Icahn School of Medicine at Mount Sinai, priority 2004, dated 2014).

Tested on: cyclin D1
Experiment: Northern blot of Cyclin D1 in HCT116 clone
Assay type: cell-based, human
Conditions: HCT116 wild type allele-containing clone
Excerpt: We next assessed the effects of FRP1 inhibition on the expression of Id2, Cyclin D1 and Myc, known targets of Wnt/β-catenin in colorectal cancer (Rockman et al. (2001) J. Biol. Chem. 276:45113-45119; Tetsu and McCormick (1999) Nature 398:422-426; He et al. (1998) Science 281:1509-1512). RNAs were extracted from HCT116 parental cells, and either wild type or mutant β-catenin allele containing clones transfected with either vector control or FRP1-HA using Triazol (Invitrogen). The RNAs were separated by (1%) agarose gel electrophoresis and transferred to a nylon membrane (Hybond®, Pharmacia). Probes were labeled by the Random Prime Labelling System method (Amersham Biosciences), and hybridization was performed overnight utilizing the Hybrisol I solution (Serologicals Corporation) according to the manufacturer's instructions. Normalization was performed utilizing a commercial human GADPH control probe (BD Biosciences Clontech).

B1: FRP1: human secreted Frizzled Related Protein 1, Wnt antagonist; expressed from pBabe-derived retrovirus with carboxy-terminal HA tag (protein, UniProt Q8N474 32-314, looked up)
Secreted frizzled-related …: SEYDYVSFQSDIGPYQSGRFYTKPPQCVDIPADLRLCHNVGYKKMVLPNLLEHETMAEVKQQASSWVPLLNKNCHAGTQVFLCSLFAPVCLDRPIYPCRWLCEAVRDSCEPVMQFFGFYWPEMLKCDKFPEGDVCIAMTPPNATEASKPQGTTVCPPCDNELKSEAIIEHLCASEFALRMKIKEVKKENGDKKIVPKKKKPLKLGPIKKKDLKKLVLYLKNGADCPCHQLDNLSHHFLIMGRKVKSQYLLTAIHKWDKKNKEFKNFMKKMKNHECPTFQSVFK
modifications: C-terminal HA tag
notes: human secreted Frizzled Related Protein 1, Wnt antagonist; expressed from pBabe-derived retrovirus with carboxy-terminal HA tag
**Q.** How did the “expression of Cyclin D1” value turn out when B1 was run?
**A.** dramatically inhibited
